Reference: US20090092971

Biological target: active RhoA, P61586
Sequence (P61586 1-190): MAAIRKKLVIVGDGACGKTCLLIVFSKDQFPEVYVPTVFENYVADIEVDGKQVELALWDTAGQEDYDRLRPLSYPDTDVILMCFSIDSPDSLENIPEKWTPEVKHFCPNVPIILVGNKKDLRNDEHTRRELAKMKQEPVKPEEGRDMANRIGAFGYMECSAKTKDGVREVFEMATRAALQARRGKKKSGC

B1: GEF-H1 (Rho guanine nucleotide exchange factor H1) (protein)
chain: MKEAKDARYTNGHLFTTISVSGMTMCYACNKSITAKEALICPTCNVTIHNRCKDTLANCTKVKQKQQKAALLKNNTALQSVSLRSKTTIRERPSSAIYPSDSFRQSLLGSRRGRSSLSLAKSVSTTNIAGHFNDESPLGLRRILSQSTDSLNMRNRTLSVESLIDEEVIYSELMSDFEMDEKDFAADSWSLAVDSSFLQQHKKEVMKQQDVIYELIQTELHHVRTLKIMTRLFRTGMLEELHLEPGVVQGLFPCVDELSDIHTRFLSQLLERRRQALCPGSTRNFVIHRLGDLLISQFSGPSAEQMCKTYSEFCSRHSKALKLYKELYARDKRFQQFIRKVTRPAVLKRHGVQECILLVTQRITKYPLLISRILQHSHGIEEERQDLTTALGLVKELLSNVDEGIYQLEKGARLQEIYNRMDPRAQTPVPGKGPFGREELLRRKLIHDGCLLWKTATGRFKDVLVLLMTDVLVFLQEKDQKYIFPTLDKPSVVSLQNLIVRDIANQEKGMFLISAAPPEMYEVHTASRDDRSTWIRVIQQSVRTCPSREDFPLIETEDEAYLRRIKMELQQKDRALVELLREKVGLFAEMTHFQAEEDGGSGMALPTLPRGLFRSESLESPRGERLLQDAIREVEGLKDLLVGPGVELLLTPREPALPLEPDSGGNTSPGVTANGEARTFNGSIELCRADSDSSQRDRNGNQLRSPQEEALQRLVNLYGLLHGLQAAVAQQDTLMEARFPEGPERREKLCRANSRDGEAGRAGAAPVAPEKQATELALLQRQHALLQEELRRCRRLGEERATEAGSLEARLRESEQARALLEREAEEARRQLAALGQTEPLPAEAPWARRPVDPRRRSLPAGDALYLSFNPPQPSRGTDRLDLPVTTRSVHRNFEDRERQELGSPEERLQDSSDPDTGSEEEGSSRLSPPHSPRDFTRMQDIPEETESRDGEAVASES
- RhoA activity (active RhoA pulled down with GST-Rhotekin-RBD, western blot): the RhoA activity increased by at least 5 times
